Data taken from publication PMC9027083 (International Journal of Molecular Sciences, 2022).

Columns and labels:
[1] = biological target: T1, recombinant MBP-EDIII of DENV1 (Dengue virus 1, strain Guiana/FGA89/1989, strain); assay: SPR; settings: both partners purified
T1 construct: also called DENV1 EDIII; envelope protein domain III of DENV1; not shown: MBP, N-terminal, kept

[2] = biological target: T2, recombinant MBP-EDIII of DENV3 (Dengue virus 3, strain …, UniProt P27915, strain); assay: SPR; settings: both partners purified
T2 construct: also called DENV3 EDIII; envelope protein domain III of DENV3; not shown: MBP, N-terminal, kept

| Binder | Kd [1] [nM] | koff [1] [s⁻¹] | kon [1] [M⁻¹ s⁻¹] | Kd [2] [nM] | koff [2] [s⁻¹] | kon [2] [M⁻¹ s⁻¹] |
| --- | --- | --- | --- | --- | --- | --- |
| 1A1D-2 Fab WT (Fab, V domains shown, also called 1A1D-2 WT) VH: EVQLQQSGAELVKPGASVKLSCTASGFNIKDTYMHWVKQRPEQGLEWIGRIDPANGYSKYDPKFQGKATITADTSSNAAYLQLSSLTSEDTAVYFCARDYEGFAYWGQGTLVTVSS VL: DIVLTQSPASLAVSLGQRATISCRASESVVRYGNSFMHWYQQKPGQPPKLLIYRASSLESGIPTRFSGSGSRTDFTLTINPVEADDVATYYCQQTNVDPWAFGGGTKLEIK | 216 | 0.00755 | 34900 | 91 | 0.00792 | 87000 |
| 1A1D-2 Fab A54E.H (Fab, V domains shown) VH: EVQLQQSGAELVKPGASVKLSCTASGFNIKDTYMHWVKQRPEQGLEWIGRIDPENGYSKYDPKFQGKATITADTSSNAAYLQLSSLTSEDTAVYFCARDYEGFAYWGQGTLVTVSS VL: DIVLTQSPASLAVSLGQRATISCRASESVVRYGNSFMHWYQQKPGQPPKLLIYRASSLESGIPTRFSGSGSRTDFTLTINPVEADDVATYYCQQTNVDPWAFGGGTKLEIK | 140 | 0.00617 | 44300 | 10.3 | 0.00364 | 354000 |
| 1A1D-2 Fab Y105R.H (Fab, V domains shown) VH: EVQLQQSGAELVKPGASVKLSCTASGFNIKDTYMHWVKQRPEQGLEWIGRIDPANGYSKYDPKFQGKATITADTSSNAAYLQLSSLTSEDTAVYFCARDYEGFARWGQGTLVTVSS VL: DIVLTQSPASLAVSLGQRATISCRASESVVRYGNSFMHWYQQKPGQPPKLLIYRASSLESGIPTRFSGSGSRTDFTLTINPVEADDVATYYCQQTNVDPWAFGGGTKLEIK | 42.6 | 0.00185 | 43500 | 49.2 | 0.00419 | 85200 |
| 1A1D-2 Fab A54E-Y105R double mutant (Fab, V domains shown) VH: EVQLQQSGAELVKPGASVKLSCTASGFNIKDTYMHWVKQRPEQGLEWIGRIDPENGYSKYDPKFQGKATITADTSSNAAYLQLSSLTSEDTAVYFCARDYEGFARWGQGTLVTVSS VL: DIVLTQSPASLAVSLGQRATISCRASESVVRYGNSFMHWYQQKPGQPPKLLIYRASSLESGIPTRFSGSGSRTDFTLTINPVEADDVATYYCQQTNVDPWAFGGGTKLEIK | 27.4 | 0.0012 | 43900 | 7.11 | 0.00158 | 222000 |
